Assays:
[1] = biological target: T1, biotinylated human TROP2 antigen (human, UniProt P09758 27-274, C-terminal Avi tag sequence biotinylated); assay: ELISA with and without uPA
T1 construct: extracellular domain
T1 sequence (looked up): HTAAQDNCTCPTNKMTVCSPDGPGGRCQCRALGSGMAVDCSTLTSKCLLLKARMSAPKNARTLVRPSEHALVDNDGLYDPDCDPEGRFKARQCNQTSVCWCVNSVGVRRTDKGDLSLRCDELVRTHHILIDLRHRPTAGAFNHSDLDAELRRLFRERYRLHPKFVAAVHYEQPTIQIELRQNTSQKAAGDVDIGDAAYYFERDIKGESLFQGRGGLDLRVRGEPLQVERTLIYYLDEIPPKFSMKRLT

[2] = biological target: T1, biotinylated human TROP2 antigen; assay: ELISA, immobilised biotinylated human TROP2 antigen, chemiluminescence; without uPA
Experimental: (§1) NeutrAvidin (Thermo Fisher Scientific) diluted to 1 μg/ml with PBS was added at 50 μl/well to a 96-well Maxi-sorp plate (Black, Nunc) and immobilized at 4° C. overnight. The plate was washed with PBS containing 0.05% (w/v) Tween-20 (BioRad) (ELISA buffer) and then blocked with Blocker Casein (Thermo Fisher Scientific). The plate was washed with ELISA buffer, the biotinylated human TROP2 antigen (Accession Number: P09758; the extracellular domain was purified by the method known to a person skilled in the art and the C-terminal Avi tag sequence was then biotinylated) diluted to 1 μg/ml with PBS was added at 50 μl/well, and the resultant was then agitated for 30 minutes at room temperature. […] The plate was washed with ELISA buffer, 50 μl of the horseradish peroxidase (HRP)-labeled anti-human IgG antibody (Jackson Immuno Research Laboratories) diluted to 2,500-fold with ELISA buffer was added, and the resultant was then agitated for 30 minutes at room temperature. The plate was washed with ELISA buffer, the SuperSignal Pico ELISA chemiluminescent substrate (Thermo Fisher Scientific) was added, and chemiluminescence 10 minutes thereafter was then assayed using a plate reader.

[3] = biological target: T1, biotinylated human TROP2 antigen; assay: ELISA, immobilised biotinylated human TROP2 antigen, chemiluminescence; after uPA pre-treatment (mask linker cleaved)
Experimental: as §1

[4] = biological target: T1, biotinylated human TROP2 antigen; assay: ELISA, immobilised biotinylated human TROP2 antigen, chemiluminescence; pH 5.5
Experimental: (§2) The plate was washed with PBS containing 0.05% (w/v) Tween-20 (BioRad) (ELISA buffer) and then blocked with Blocker Casein (Thermo Fisher Scientific). The plate was washed with ELISA buffer, the biotinylated human TROP2 antigen (Accession Number: P09758; the extracellular domain was purified by the method known to a person skilled in the art and the C-terminal Avi tag sequence was then biotinylated) diluted to 1 μg/ml with PBS was added at 50 μl/well, and the resultant was then agitated for 30 minutes at room temperature. […] The plate was washed with ELISA buffer, 50 μl of the horseradish peroxidase (HRP)-labeled anti-human IgG antibody (Jackson Immuno Research Laboratories) diluted to 2,500-fold with ELISA buffer was added, and the resultant was then agitated for 30 minutes at room temperature. The plate was washed with ELISA buffer, the SuperSignal Pico ELISA chemiluminescent substrate (Thermo Fisher Scientific) was added, and chemiluminescence 10 minutes thereafter was then assayed using a plate reader. […]

[5] = biological target: T1, biotinylated human TROP2 antigen; assay: ELISA, immobilised biotinylated human TROP2 antigen, chemiluminescence; pH 7.5
Experimental: as §2

[6] = biological target: T1, biotinylated human TROP2 antigen; assay: ELISA, immobilised biotinylated human TROP2 antigen, chemiluminescence; pH 5.5; remark: listed apart in the source
Experimental: as §2

[7] = biological target: T1, biotinylated human TROP2 antigen; assay: ELISA, immobilised biotinylated human TROP2 antigen, chemiluminescence; pH 7.5; remark: listed apart in the source
[8] = biological target: T1, biotinylated human TROP2 antigen; assay: ELISA, immobilised biotinylated human TROP2 antigen, chemiluminescence; pH 5.5; remark: listed apart in the source
[9] = biological target: T1, biotinylated human TROP2 antigen; assay: ELISA, immobilised biotinylated human TROP2 antigen, chemiluminescence; pH 6.0
[10] = biological target: T1, biotinylated human TROP2 antigen; assay: ELISA, immobilised biotinylated human TROP2 antigen, chemiluminescence; pH 7.5; remark: listed apart in the source
[11] = biological target: T1, biotinylated human TROP2 antigen; assay: ELISA, immobilised biotinylated human TROP2 antigen, anti-FLAG-HRP detection; without MMP1
Experimental: (§3) NeutrAvidin (Thermo Fisher Scientific) diluted to 1 μg/ml with PBS was added at 50 μl/well to a 96-well Maxi-sorp plate (Black, Nunc) and immobilized at 4° C. overnight. The plate was washed with PBS containing 0.05% (w/v) Tween-20 (BioRad) (ELISA buffer) and then blocked with Blocker Casein (Thermo Fisher Scientific). The plate was washed with ELISA buffer, the biotinylated human TROP2 antigen (Accession Number: P09758; the extracellular domain was purified by the method known to a person skilled in the art and the C-terminal Avi tag sequence was then biotinylated) diluted to 1 μg/ml with PBS was added at 50 μl/well, and the resultant was then agitated for 30 minutes at room temperature. […] The plate was washed with ELISA buffer, the SuperSignal Pico ELISA chemiluminescent substrate (Thermo Fisher Scientific) was added, and chemiluminescence 10 minutes thereafter was then assayed using a plate reader.
(§4) The resultant was then added to the plate comprising the human TROP2 antigen immobilized thereon at 50 μl/well. The bound scFv was detected using the HRP-labeled anti-FLAG antibody (Sigma-Aldrich) diluted to 5,000-fold with ELISA buffer.

[12] = biological target: T1, biotinylated human TROP2 antigen; assay: ELISA, immobilised biotinylated human TROP2 antigen, anti-FLAG-HRP detection; after MMP1 pre-treatment
Experimental: as §3, §4

[13] = biological target: T1, biotinylated human TROP2 antigen; assay: ELISA, immobilised biotinylated human TROP2 antigen, anti-FLAG-HRP detection; without MMP1; remark: listed apart in the source
Experimental: as §3, §4

[14] = biological target: T1, biotinylated human TROP2 antigen; assay: ELISA, immobilised biotinylated human TROP2 antigen, anti-FLAG-HRP detection; after MMP1 pre-treatment; remark: listed apart in the source
Experimental: as §3, §4

B1: anti-TROP2 masked antibody MHT1009 (antibody)
heavy: not shown
light: DIQMTQSPSSLSASVGDRVTITCKASQDVSTAVAWYQQKPGKAPKLLIYSASYRYTGVPSRFSGSGSGTDFTLTISSLQPEDFAVYYCQQHYITPLTFGQGTKLEIKRTVAAPSVFIFPPSDEQLKSGTASVVCLLNNFYPREAKVQWKVDNALQSGNSQESVTEQDSKDSTYSLSSTLTLSKADYEKHKVYACEVTHQGLSSPVTKSFNRGEC
notes: Full-length entries
- EC50 ratio of binding intensity (without uPA / with uPA) [1]: 83
- EC50 (read off the curve) [2]: ~90 nM
- EC50 (read off the curve) [3]: ~1 nM

B2: anti-TROP2 masked antibody MHT1808 (antibody)
heavy: not shown
light: DIQMTQSPSSLSASVGDRVTITCKASQDVSTAVAWYQQKPGKAPKLLIYSASYRYTGVPSRFSGSGSGTDFTLTISSLQPEDFAVYYCQQHYITPLTFGQGTKLEIKRTVAAPSVFIFPPSDEQLKSGTASVVCLLNNFYPREAKVQWKVDNALQSGNSQESVTEQDSKDSTYSLSSTLTLSKADYEKHKVYACEVTHQGLSSPVTKSFNRGEC
notes: His cluster linker; Full-length entries
- EC50 (read off the curve) [4]: ~2 nM
- EC50 (read off the curve) [5]: ~50 nM
- EC50 (read off the curve) [6]: ~1 nM
- EC50 (read off the curve) [7]: ~30 nM
- EC50 (read off the curve) [8]: ~1 nM
- EC50 (read off the curve) [9]: ~4 nM
- EC50 (read off the curve) [10]: ~20 nM

B3: HT1-11-scFv-LH (scFv)
scFv: ADVNSDIQMTQSPSSLSASVGDRVTITCKASQDVSTAVAWYQQKPGKAPKLLIYSASYRYTGVPSRFSGSGSGTDFTLTISSLQPEDFAVYYCQQHYITPLTFGQGTKLEIKRGGGGSGGGGSGGGGSQVQLVQSGAEVKKPGASVKVSCKASGYTFTTAGMQWVRQAPGQGLEWMGWINTHSGVPKYAEDFKGRVTISADTSTSTAYLQLSSLKSEDTAVYYCARSGFGSSYWYFDVWGQGTLVTVSSGAPSGDYKDDDDKGAAAHHHHHH
notes: Unmasked scFv (VL-VH) expressed in E. coli; Full-length entry
- EC50 (read off the curve) [11]: ~3 nM
- EC50 (read off the curve) [12]: ~3 nM

B4: HT1-11-scFv-HL (scFv)
scFv: ADVNSQVQLVQSGAEVKKPGASVKVSCKASGYTFTTAGMQWVRQAPGQGLEWMGWINTHSGVPKYAEDFKGRVTISADTSTSTAYLQLSSLKSEDTAVYYCARSGFGSSYWYFDVWGQGTLVTVSSGGGGSGGGGSGGGGSDIQMTQSPSSLSASVGDRVTITCKASQDVSTAVAWYQQKPGKAPKLLIYSASYRYTGVPSRFSGSGSGTDFTLTISSLQPEDFAVYYCQQHYITPLTFGQGTKLEIKRGAPSGDYKDDDDKGAAAHHHHHH
notes: Unmasked scFv (VH-VL) expressed in E. coli, purified by Ni Sepharose; Full-length entry
- EC50 (read off the curve) [13]: ~5 nM
- EC50 (read off the curve) [14]: ~5 nM

Source: US20250170255A1 (Daiichi Sankyo, published 2025)
